Reference: patent publication US5684146

Legend:
[1] = molecular target: haemagglutinin (HA) of human influenza A type virus strain A/Okuda/57 (H2N2 subtype) (human influenza A type virus, H2N2 subtype, strain A/Okuda/57)
[2] = molecular target: haemagglutinin (HA) of human influenza A type virus strain A/PR/8/34 (H1N1 subtype) (human influenza A type virus, H1N1 subtype, strain A/PR/8/34) (UniProt P03452)
[3] = molecular target: haemagglutinin (HA) of human influenza A type virus strain A2/Aichi/2/68 (H3N2 subtype) (human influenza A type virus, H3N2 subtype, strain A2/Aichi/2/68) (UniProt P03437)
[4] = molecular target: haemagglutinin (HA) of human influenza A type virus strain A/Suita/1/90 (H3N2 subtype) (human influenza A type virus, H3N2 subtype, strain A/Suita/1/90)
[5] = molecular target: haemagglutinin (HA) of human influenza A type virus strain A/Okuda/57 (H2N2 subtype) (human influenza A type virus, H2N2 subtype, strain A/Okuda/57); remark: listed apart in the source
[6] = molecular target: haemagglutinin (HA) of human influenza A type virus strain A/Kumamoto/1/65 (H2N2 subtype) (human influenza A type virus, H2N2 subtype, strain A/Kumamoto/1/65)
[7] = molecular target: haemagglutinin (HA) of human influenza A type virus strain A/Suita/1/89 (H1N1 subtype) (human influenza A type virus, H1N1 subtype, strain A/Suita/1/89)
[8] = molecular target: haemagglutinin (HA) of human influenza A type virus strain A/Adachi/2/57 (H2N2 subtype) (human influenza A type virus, H2N2 subtype, strain A/Adachi/2/57)
[9] = molecular target: haemagglutinin (HA) of human influenza A type virus strain A/Yamagata/120/86 (H1N1 subtype) (human influenza A type virus, H1N1 subtype, strain A/Yamagata/120/86)
[10] = molecular target: haemagglutinin (HA) of human influenza A type virus strain A/Ibaraki/1/90 (H3N2 subtype) (human influenza A type virus, H3N2 subtype, strain A/Ibaraki/1/90)
[11] = molecular target: haemagglutinin (HA) of human influenza A type virus strain A/Kaizuka/2/65 (H2N2 subtype) (human influenza A type virus, H2N2 subtype, strain A/Kaizuka/2/65)
[12] = molecular target: haemagglutinin (HA) of human influenza A type virus strain A/Sichuan/2/87 (H3N2 subtype) (human influenza A type virus, H3N2 subtype, strain A/Sichuan/2/87)
[13] = molecular target: haemagglutinin (HA) of human influenza A type virus strain A/PR/8/34 (H1N1 subtype) (human influenza A type virus, H1N1 subtype, strain A/PR/8/34) (UniProt P03452); remark: listed apart in the source
[14] = molecular target: haemagglutinin (HA) of human influenza A type virus strain A/Bangkok/10/83 (H1N1 subtype) (human influenza A type virus, H1N1 subtype, strain A/Bangkok/10/83)
[15] = molecular target: haemagglutinin (HA) of human influenza A type virus strain A2/Aichi/2/68 (H3N2 subtype) (human influenza A type virus, H3N2 subtype, strain A2/Aichi/2/68) (UniProt P03437); remark: listed apart in the source
[16] = molecular target: haemagglutinin (HA) of human influenza A type virus strain A1/FM/1/47 (H1N1 subtype) (human influenza A type virus, H1N1 subtype, strain A1/FM/1/47)
[17] = molecular target: haemagglutinin (HA) of human influenza A type virus strain A/Osaka/930/88 (H1N1 subtype) (human influenza A type virus, H1N1 subtype, strain A/Osaka/930/88)
[18] = molecular target: haemagglutinin (HA) of human influenza A type virus strain A/Fukuoka/C29/85 (H3N2 subtype) (human influenza A type virus, H3N2 subtype, strain A/Fukuoka/C29/85)
[19] = molecular target: influenza B type virus strain B/Nagasaki/1/87 (influenza B type virus, strain B/Nagasaki/1/87)
[20] = molecular target: haemagglutinin (HA) of human influenza A type virus strain A/Izumi/5/65 (H2N2 subtype) (human influenza A type virus, H2N2 subtype, strain A/Izumi/5/65)
[21] = molecular target: haemagglutinin (HA) of human influenza A type virus strain A/Kitakyushu/159/93 (H3N2 subtype) (human influenza A type virus, H3N2 subtype, strain A/Kitakyushu/159/93)

fused polypeptide of scFv of C179 with two Fc binding domain-like structures of protein A
Absorbance at 492 nm (absorbance at 492 nm) [1]: 0.303 | Absorbance at 492 nm (absorbance at 492 nm) [2]: 0.15 | Absorbance at 492 nm (absorbance at 492 nm) [3]: 0.074

B1: monoclonal antibody C179 (antibody, V domains shown)
VH: EVKLVESGGGLVQPGGSLRLSCGTSGFTLTDDYMTWVRQPPGKALEWLGFIRDRANGYTTEYSASVKGRFTISRDNSQSIVYLQMNTLRVEDSATYYCARPKGYFPYAMDYWGQGT
VL: DIQMTQSPASQSASLGESVTITCLASQTIGTWLAWYQQKPGKSPQLLIYAATSLADGVPSRFSGSGSGTKFSFKISSLQAEDFVSYYCQQLYSTPWTF
HI activity (haemagglutination inhibition, antibody titer) (dilution ratio of the ascites fluid) [4]: < 32 | Neutralization activity (focus reduction neutralization test, antibody titer) [4]: < 16 | Staining activity (antibody titer) [4]: < 100 | HI activity (haemagglutination inhibition, antibody titer) (dilution ratio of the ascites fluid) [5]: < 32 | Neutralization activity (focus reduction neutralization test, antibody titer) [5]: 1024 | Staining activity (antibody titer) [5]: 1.64e+06 | HI activity (haemagglutination inhibition, antibody titer) (dilution ratio of the ascites fluid) [6]: < 32 | Neutralization activity (focus reduction neutralization test, antibody titer) [6]: 1024 | Staining activity (antibody titer) [6]: 410000 | HI activity (haemagglutination inhibition, antibody titer) (dilution ratio of the ascites fluid) [7]: < 32 | Neutralization activity (focus reduction neutralization test, antibody titer) [7]: 1024 | Staining activity (antibody titer) [7]: 410000 | HI activity (haemagglutination inhibition, antibody titer) (dilution ratio of the ascites fluid) [8]: < 32 | Neutralization activity (focus reduction neutralization test, antibody titer) [8]: 1024 | Staining activity (antibody titer) [8]: 1.64e+06 | HI activity (haemagglutination inhibition, antibody titer) (dilution ratio of the ascites fluid) [9]: < 32 | Neutralization activity (focus reduction neutralization test, antibody titer) [9]: 1024 | Staining activity (antibody titer) [9]: 410000 | HI activity (haemagglutination inhibition, antibody titer) (dilution ratio of the ascites fluid) [10]: < 32 | Neutralization activity (focus reduction neutralization test, antibody titer) [10]: < 16 | Staining activity (antibody titer) [10]: < 100 | HI activity (haemagglutination inhibition, antibody titer) (dilution ratio of the ascites fluid) [11]: < 32 | Neutralization activity (focus reduction neutralization test, antibody titer) [11]: 2048 | Staining activity (antibody titer) [11]: 410000 | HI activity (haemagglutination inhibition, antibody titer) (dilution ratio of the ascites fluid) [12]: < 32 | Neutralization activity (focus reduction neutralization test, antibody titer) [12]: < 16 | Staining activity (antibody titer) [12]: < 100 | HI activity (haemagglutination inhibition, antibody titer) (dilution ratio of the ascites fluid) [13]: < 32 | Neutralization activity (focus reduction neutralization test, antibody titer) [13]: 512 | HI activity (haemagglutination inhibition, antibody titer) (dilution ratio of the ascites fluid) [14]: < 32 | Neutralization activity (focus reduction neutralization test, antibody titer) [14]: 512 | Staining activity (antibody titer) [14]: 1.64e+06 | HI activity (haemagglutination inhibition, antibody titer) (dilution ratio of the ascites fluid) [15]: < 32 | Neutralization activity (focus reduction neutralization test, antibody titer) [15]: < 16 | HI activity (haemagglutination inhibition, antibody titer) (dilution ratio of the ascites fluid) [16]: < 32 | Neutralization activity (focus reduction neutralization test, antibody titer) [16]: 512 | Staining activity (antibody titer) [16]: 410000 | HI activity (haemagglutination inhibition, antibody titer) (dilution ratio of the ascites fluid) [17]: < 32 | Neutralization activity (focus reduction neutralization test, antibody titer) [17]: 512 | Staining activity (antibody titer) [17]: 410000 | HI activity (haemagglutination inhibition, antibody titer) (dilution ratio of the ascites fluid) [18]: < 32 | Neutralization activity (focus reduction neutralization test, antibody titer) [18]: < 16 | Staining activity (antibody titer) [18]: < 100 | HI activity (haemagglutination inhibition, antibody titer) (dilution ratio of the ascites fluid) [19]: < 32 | Neutralization activity (focus reduction neutralization test, antibody titer) [19]: < 16 | Staining activity (antibody titer) [19]: < 100 | HI activity (haemagglutination inhibition, antibody titer) (dilution ratio of the ascites fluid) [20]: < 32 | Neutralization activity (focus reduction neutralization test, antibody titer) [20]: 1024 | Staining activity (antibody titer) [20]: 410000 | HI activity (haemagglutination inhibition, antibody titer) (dilution ratio of the ascites fluid) [21]: < 32 | Neutralization activity (focus reduction neutralization test, antibody titer) [21]: < 16 | Staining activity (antibody titer) [21]: < 100
